Results from US20150093398A1, “Methods and Compositions for Treating or Preventing Cancer” (MERCK SHARP & DOHME CORP., priority 2005, published 2015).

System: SJSA-1 osteosarcoma cells
Assay: SJSA-1 osteosarcoma xenograft model (05-IGFR-12), dosing from day 18 post inoculation
Format: in vivo, female nude mouse (strain NU/NU)
Description: About 7 million SJSA-1 osteosarcoma cells were inoculated subcutaneously to the flank of each female nude mouse (strain NU/NU from Charles River, age ˜6 wks-old, average weight ˜20 gram). For the experiment set forth in Table 8, dosing was initiated on day 18 post inoculation, when the xenograft tumor reached an average size of about 100 mm^3. Anti-IGF1R antibody (19D12 Light chain F/Heavy chain A (as set forth above)) was given ip twice a week at the dose of either 0.02 mg, 0.1 and 0.5 mg per mouse, while cytotoxic Cytoxan (cyclophosphamide) was given ip twice per week at the dose of 100 mpk for a total of 3 injection during the course of the study. Xenograft tumor size was measured twice per week with a caliper and captured electronically by the LabCat program.

B1: 19D12: anti-IGF1R antibody: light chain variable region amino acids 20-128 of SEQ ID NO: 8, heavy chain variable region amino acids 20-137 of SEQ ID NO: 10 (antibody, V domains shown)
VL: MSPSQLIGFLLLWVPASRGEIVLTQSPGTLSVSPGERATLSCRASQSIGSSLHWYQQKPGQAPRLLIKYASQSLSGIPDRFSGSGSGTDFTLTISRLEPEDFAVYYCHQSSRLPHTFGQGTKVEIKRT
VH: MEFGLSWVFLVAILKGVQCEVQLVQSGGGLVKPGGSLRLSCAASGFTFSSFAMHWVRQAPGKGLEWISVIDTRGATYYADSVKGRFTISRDNAKNSLYLQMNSLRAEDTAVYYCARLGNFYYGMDVWGQGTTVTVSS
modifications: variable regions only: LC 20-128, HC 20-137; constant regions lack entries
Mean Tumor size (0.02 mg 19D12, Day 0): 98 mm3
Mean Tumor size (0.02 mg 19D12, Day 3): 121 mm3
Mean Tumor size (0.02 mg 19D12, Day 7): 197 mm3
Mean Tumor size (0.02 mg 19D12, Day 10): 272 mm3
Mean Tumor size (0.02 mg 19D12, Day 14): 423 mm3
Mean Tumor size (0.02 mg 19D12, Day 17): 675 mm3
Mean Tumor size (0.1 mg 19D12, Day 0): 96 mm3
Mean Tumor size (0.1 mg 19D12, Day 3): 121 mm3
Mean Tumor size (0.1 mg 19D12, Day 7): 144 mm3
Mean Tumor size (0.1 mg 19D12, Day 10): 231 mm3
Mean Tumor size (0.1 mg 19D12, Day 14): 378 mm3
Mean Tumor size (0.1 mg 19D12, Day 17): 431 mm3
Mean Tumor size (0.1 mg 19D12, Day 21): 1037 mm3
Mean Tumor size (0.5 mg 19D12, Day 0): 96 mm3
Mean Tumor size (0.5 mg 19D12, Day 3): 103 mm3
Mean Tumor size (0.5 mg 19D12, Day 7): 122 mm3
Mean Tumor size (0.5 mg 19D12, Day 10): 115 mm3
Mean Tumor size (0.5 mg 19D12, Day 14): 282 mm3
Mean Tumor size (0.5 mg 19D12, Day 17): 435 mm3
Mean Tumor size (0.5 mg 19D12, Day 21): 890 mm3
growth inhibition of the osteosarcoma tumor (in words) (ip twice a week, 0.02, 0.1 or 0.5 mg per mouse, summary of Table 8): marked anti-IGF1R-dependent growth inhibition
